Drawing on article PMC10821612, this text covers IC50 of neutralisation of HCVpp infection of Huh-7 cells (luciferase) for 1 substance.

The target in test [1] is AMS0229 E1E2 glycoprotein on HCV pseudoparticles (HCVpp) (Hepatitis C virus (genotype 1a)).
For test [2], the target named is UKNP1.2.3 E1E2 glycoprotein on HCV pseudoparticles (HCVpp) (Hepatitis C virus).
Test [3] has as its target UKNP2.4.1 E1E2 glycoprotein on HCV pseudoparticles (HCVpp) (Hepatitis C virus (genotype 2)).

With “Soluble CD81 LEL with Strep-tag (soluble version of the long external loop of the CD81 receptor) (domain or fragment)”, the IC50 of neutralisation of HCVpp infection of Huh-7 cells (luciferase) in test [1] was 92 µg/mL; in test [2], 85 µg/mL; in test [3], 82 µg/mL.
